Reference: patent US20150086555A1

B1: TCN-539 (5056_A08) (antibody, V domains shown)
VH: QVQLVESGGGVVQPGRSLRLSCAASEITFITYAMHWVRQAPGKGLEWVALISDDGSNKFYADSVKGRFTISRDNSKNTLYLQMNSLRAEDTAAYYCAREGVYFDSGTYRGYFDYWGQETLVTVSS
VL: EIVLTQSPATLSLSPGERATLSCRASQSVSSYLAWYQQKPGQAPRLLIYDASNRATGIPARFSGSGSGTDFTLTISSLEPEDFAVYYCQQRSHWPPITFGQGTRLEIK
B2: TCN-540 (5060_F05) (antibody, V domains shown)
VH: QVQLVQSGGGVVQPGRSLRLSCAASGFTFSSYAMHWVRQAPGKGLEWVAIISYDGNDQYYTDSVKGRFTISRDSSKVYLQMHRLRPEDTAVYYCAKEFETSGYFHGSFDYWGQGILVTVSS
VL: QSALTQPASVSGSPGQSITISCTGTSSDVGGYNYVSWYQQHPGKAPKLLIYEVTNWPSGVSNRFSGSKSGNTASLTISGLQAEDEADYYCSSYAGSSTWVFGGGTRVTVL
B3: TCN-546 (5089_L08) (antibody, V domains shown)
VH: QVQLQQWGAGLLKPSETLSLTCGVYGGSLSDYYWSWIRQPPGKGLEWIGEINHSGGTNYNPSLKRRVTISVDTSKKQFSLKMNSVTAADTAVYYCARGTDPDTEVYCRAGNCAAFDFWGQGTLVTVSS
VL: EIVLTQSPGTLSLSPGERATLSCRASHFVIGRAVAWYQQKPGQAPRLLIYGASSRATGIPDRFSGSGSGTDFTLTISRLETEDFAVFYCQHYGSSPRYAFGQGTKLEIK
B4: TCN-538 (3206_O17) (antibody, V domains shown)
VH: QITLKESGPTLVKPTQTLTLTCVFSGFSLSITGVRVGWIRQPPGKALEWLALISWDDEKHYSPSLQSRLTITKDTSKNQVVLTMTNLDPVDTATYYCARSTDRGHVLRYFGWMLPGDAFDVWGQGTMVTVSS
VL: DIVMTQSPDFLPVSLGERATINCKSSQRVLYSSNNKNYLAWYQLKPGQPPKLIIYWASTRESGVPDRFSGSGSGTEFTLTISSLQAEDVAVYYCQQYYSRPYTFGQGTKLEIK

Target: recombinant soluble homotrimeric HA of A/Wisconsin/67/05 (H3N2) (Influenza A virus A/Wisconsin/67/2005(H3N2))
Assay: trimeric HA microarray, transfection supernatant set 5
Conditions: remark: other sources report otherwise

**Q.** For B1, which Trimeric HA Binding: RLU is on record?
**A.** 58800 RLU

**Q.** Which Trimeric HA Binding: RLU does the source give for B2 here?
**A.** 53000 RLU

**Q.** How did the Trimeric HA Binding: RLU turn out when B3 was run?
**A.** 28500 RLU

Target: recombinant soluble homotrimeric HA of A/Anhui/1/05 (H5N1) (Influenza A virus A/Anhui/1/2005(H5N1))
Assay: as above
Conditions: remark: other sources report otherwise

**Q.** How did the Trimeric HA Binding: RLU turn out when B1 was run?
**A.** 3240 RLU

**Q.** B2 was tested. Which Trimeric HA Binding: RLU did it give?
**A.** 2190 RLU

**Q.** Which Trimeric HA Binding: RLU does the source give for B3 here?
**A.** 33300 RLU

Target: recombinant soluble homotrimeric HA of A/Egypt/3300-NAMRU3/08 (H5N1) (Influenza A virus A/Egypt/3300-NAMRU3/2008(H5N1))
Assay: as above
Conditions: remark: other sources report otherwise

**Q.** With B4 as the binder, how does the Trimeric HA Binding: RLU read?
**A.** 41000 RLU

**Q.** B2 was tested. Which Trimeric HA Binding: RLU did it give?
**A.** 15600 RLU

**Q.** For B3, which Trimeric HA Binding: RLU is on record?
**A.** 53000 RLU

Target: recombinant soluble homotrimeric HA of A/Vietnam/1203/04 (H5N1) (Influenza A virus A/VietNam/1203/2004(H5N1))
Assay: as above
Conditions: remark: other sources report otherwise

**Q.** B1 was tested. Which Trimeric HA Binding: RLU did it give?
**A.** 53300 RLU

**Q.** How did the Trimeric HA Binding: RLU turn out when B4 was run?
**A.** 52400 RLU

**Q.** For B2, which Trimeric HA Binding: RLU is on record?
**A.** 42500 RLU

**Q.** With B3 as the binder, how does the Trimeric HA Binding: RLU read?
**A.** 47100 RLU

Target: recombinant soluble homotrimeric HA of A/South Carolina/1/18 (H1N1) (Influenza A virus A/South Carolina/1/18 (H1N1))
Assay: as above
Conditions: remark: other sources report otherwise

**Q.** B1 was tested. Which Trimeric HA Binding: RLU did it give?
**A.** 5330 RLU

**Q.** With B4 as the binder, how does the Trimeric HA Binding: RLU read?
**A.** 8430 RLU

**Q.** B2 was tested. Which Trimeric HA Binding: RLU did it give?
**A.** 1360 RLU

**Q.** How did the Trimeric HA Binding: RLU turn out when B3 was run?
**A.** 955 RLU

Target: recombinant soluble homotrimeric HA of A/swine/Ontario/01911-2/99 (H4N6) (Influenza A virus A/Swine/Ontario/01911-2/99 (H4N6))
Assay: as above
Conditions: remark: other sources report otherwise

**Q.** How did the Trimeric HA Binding: RLU turn out when B4 was run?
**A.** 3350 RLU

**Q.** For B3, which Trimeric HA Binding: RLU is on record?
**A.** 4610 RLU

Target: recombinant soluble homotrimeric HA of A/Indonesia/5/05 (H5N1) (Influenza A virus A/Indonesia/5/2005(H5N1))
Assay: as above
Conditions: remark: other sources report otherwise

**Q.** How did the Trimeric HA Binding: RLU turn out when B1 was run?
**A.** 8950 RLU

**Q.** With B4 as the binder, how does the Trimeric HA Binding: RLU read?
**A.** 13700 RLU

**Q.** How did the Trimeric HA Binding: RLU turn out when B2 was run?
**A.** 2570 RLU

**Q.** For B3, which Trimeric HA Binding: RLU is on record?
**A.** 40900 RLU

Target: recombinant soluble homotrimeric HA of A/northern shoveler/California/HKWF115/07 (H6) (Influenza A virus A/northern shoveler/California/HKWF115/2007(H6N1))
Assay: as above
Conditions: remark: other sources report otherwise

**Q.** With B1 as the binder, how does the Trimeric HA Binding: RLU read?
**A.** 2860 RLU

**Q.** For B4, which Trimeric HA Binding: RLU is on record?
**A.** 8900 RLU

**Q.** How did the Trimeric HA Binding: RLU turn out when B2 was run?
**A.** 2460 RLU

**Q.** B3 was tested. Which Trimeric HA Binding: RLU did it give?
**A.** 2430 RLU

Target: recombinant soluble homotrimeric HA of A/Hong Kong/156/97 (H5N1) (Influenza A virus A/Hong Kong/156/97 (H5N1))
Assay: as above
Conditions: remark: other sources report otherwise

**Q.** With B1 as the binder, how does the Trimeric HA Binding: RLU read?
**A.** 1450 RLU

**Q.** B4 was tested. Which Trimeric HA Binding: RLU did it give?
**A.** 5170 RLU

**Q.** For B2, which Trimeric HA Binding: RLU is on record?
**A.** 1550 RLU

**Q.** For B3, which Trimeric HA Binding: RLU is on record?
**A.** 1240 RLU

Target: recombinant soluble homotrimeric HA of A/Solomon Islands/3/06 (H1N1) (Influenza A virus A/Solomon Islands/3/2006(H1N1))
Assay: as above
Conditions: remark: other sources report otherwise

**Q.** Which Trimeric HA Binding: RLU does the source give for B1 here?
**A.** 871 RLU

**Q.** How did the Trimeric HA Binding: RLU turn out when B4 was run?
**A.** 1960 RLU

**Q.** With B2 as the binder, how does the Trimeric HA Binding: RLU read?
**A.** 1180 RLU

Target: recombinant soluble homotrimeric HA of A/California/4/09 (H1N1) (Influenza A virus A/California/04/2009(H1N1))
Assay: as above
Conditions: remark: other sources report otherwise

**Q.** How did the Trimeric HA Binding: RLU turn out when B1 was run?
**A.** 1050 RLU

**Q.** For B4, which Trimeric HA Binding: RLU is on record?
**A.** 16000 RLU

**Q.** Which Trimeric HA Binding: RLU does the source give for B2 here?
**A.** 984 RLU

**Q.** B3 was tested. Which Trimeric HA Binding: RLU did it give?
**A.** 1080 RLU

Target: recombinant soluble homotrimeric HA of A/chicken/Vietnam/NCVD-016/08 (H5N1) (Influenza A virus A/chicken/Vietnam/NCVD-016/2008(H5N1))
Assay: as above
Conditions: remark: other sources report otherwise

**Q.** How did the Trimeric HA Binding: RLU turn out when B1 was run?
**A.** 3500 RLU

**Q.** For B4, which Trimeric HA Binding: RLU is on record?
**A.** 2950 RLU

**Q.** Which Trimeric HA Binding: RLU does the source give for B2 here?
**A.** 1510 RLU

**Q.** Which Trimeric HA Binding: RLU does the source give for B3 here?
**A.** 2940 RLU

Target: recombinant soluble homotrimeric HA of A/Japan/305/57 (H2N2) (Influenza A virus A/Japan/305/1957(H2N2))
Assay: as above
Conditions: remark: other sources report otherwise

**Q.** Which Trimeric HA Binding: RLU does the source give for B1 here?
**A.** 2560 RLU

**Q.** With B4 as the binder, how does the Trimeric HA Binding: RLU read?
**A.** 6620 RLU

**Q.** How did the Trimeric HA Binding: RLU turn out when B2 was run?
**A.** 47900 RLU

**Q.** For B3, which Trimeric HA Binding: RLU is on record?
**A.** 1730 RLU

Target: recombinant soluble homotrimeric HA of A/duck/Yangzhou/02/05 (H8N4) (Influenza A virus A/duck/Yangzhou/02/2005(H8N4))
Assay: as above
Conditions: remark: other sources report otherwise

**Q.** How did the Trimeric HA Binding: RLU turn out when B4 was run?
**A.** 4060 RLU

**Q.** B2 was tested. Which Trimeric HA Binding: RLU did it give?
**A.** 6080 RLU

**Q.** For B3, which Trimeric HA Binding: RLU is on record?
**A.** 11400 RLU

Target: recombinant soluble homotrimeric HA of A/Netherlands/219/03 (H7N7) (Influenza A virus A/Netherlands/219/03(H7N7))
Assay: as above
Conditions: remark: other sources report otherwise

**Q.** How did the Trimeric HA Binding: RLU turn out when B1 was run?
**A.** 15700 RLU

**Q.** B4 was tested. Which Trimeric HA Binding: RLU did it give?
**A.** 4370 RLU

**Q.** With B2 as the binder, how does the Trimeric HA Binding: RLU read?
**A.** 4390 RLU

**Q.** With B3 as the binder, how does the Trimeric HA Binding: RLU read?
**A.** 3740 RLU
